Assay: yeast display, Sf9 membrane polyspecificity reagent, FACS + sequencing; frameworks hold sequencing errors
How it was run: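 Synthetic nanobody libraries on Saccharomyces cerevisiae BJ5465 were galactose-induced for 36–48 hours, stained 1 hour at 4 °C with 10% biotinylated, detergent-solubilized Sf9 membrane reagent and enriched on streptavidin microbeads. FACS then separated cells into low and high (top ~1%) gates by anti-HA (expression) and streptavidin (reagent binding) fluorescence. Genes were colony-PCR amplified, MiSeq 2 × 250 sequenced and CDR-length filtered. A clone's polyreactivity label is that of its gate of origin.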

| Sequence | polyreactivity (PSR sort gate) |
| --- | --- |
| EEELVESGGGLVQAGGSLRLSCAASGRTFVYNAMGWYRQAPWKERELVAAITSGDSTYYADSVKGRFTISRDNAKNTVYLQMNSLKPEDTAVYYCATDYSGIFYWYDYWGQGTQVTVSS | low polyreactivity |
| EEELVESGGGLVQAGGSLRLSCAASGSIFYYNAMGWYRQAPGKERELVAAISRGGTTNYADSVKGRFTISRDNAKNTVYLQMNSLKPEDTAVYYCAAKAYDYYGPVYYWGQGTQVTVSS | high polyreactivity |
| EEELVESGGGLVQAGGSLRLTCAASGFIFAYNAMGWYRQAPGKEREFVAAISRSGGSTYYADSVKGRFTISRDNAKNTVYLQMNSLKPEDTAVYYCAARRSVGGYGYWGQGTQVTVSS | high polyreactivity |
| EEELVESGGGLVQAGGSSLRLSCAASGFIFVSNAMGWYRQAPGKERELVASIRWSDGSTFYADSVKGRFTISRDNAKNTVYLQMNSLKPEDTAVYYCNAVYEHRRVGWVTIDYGYWGQGTQVTVSS | low polyreactivity |
| EVHLLESGGGLVQAGGSLRLSSAASGFTFACNAMGWYRQAPGKERELVAALTWGDNSTYYADSVKGRFTISRDNAKNTVYLQMNSLKQEDTAVYYCGARVTHWYYLFGYDYWGQGTQVTVSS | low polyreactivity |
| EVQLVESGGGLVQAGGSLRLSCAASGFFYPNNAMGWYRQAPGKERELVARISYGGGDTHYADSVKGRFTISRDNAKNTVYLQMNSLKPEDTAVYYCAVKDGQDDYWGQGTQVTVSS | low polyreactivity |
| EVQLVESGGGLVQAGGSLRLSCAASGRIFYTNTMGWYRPAPGKERELVATGSTYYADSVKGRFTISRDNAKNTVYLQMDSLKPEDTAVYYCAKRGDFLTKRYESGSAASDYLGQGTQVTVSS | low polyreactivity |
| EVQLVESGGGLVQAGGSLRLSCAASGRTIGFNGMAWYRQAPGKERELFAAITRSGGNTYADSVKGRFTISRDNAKNTVYLQMNSLNPEDSAVYYCATTYVGETLTGPGDYWGQGTQVTVSS | low polyreactivity |
| EVQLVESGGGLVQPGGILRVSCAASGYIYSRYRKGWYRQAPGKRREFVAAISGGSSTNYADSVKGRFTISRDNSKKTVYLQMNSLRAEDTAVYYCADSKIDSDPRVYWGQGYQVTVSS | low polyreactivity |
| EVQLVESGGGLVQTGGSLRLSCAASGYIYSRYRMGWYRQAPGKGREIVAAISGGSSTNYADSVKGRFTISRDNSNNTVYLQMNSLRAEDTAVYYCAAYKIDSDTRVYWGQGTQVTVSS | low polyreactivity |
| EVQLVESGGGVDQAVGSLRLSCAASGSIFLFYARGWYRQARGKEMELVARISFRSTSTYYADSVKGRFTISLDNAKYTVSLQMNSLKPEDTAVYYCATRTWYGYLYDYWGQGTQVTVSS | high polyreactivity |
| EVQLVESGVGLVQAGGSLRLSCAASASIFLSYAMGCYRQAPGKVRELVDAISRRGGSTYYADSVKGRFTISRDFAKNTVYLQMNSLKPEDTAVYYCAADLTGPYDYWGQGTQVTVSS | high polyreactivity |
| EVQRVESGGGLVQAGCSLRLSCAASGINFSIYAMGWYRQAPGKERELVADITYSGGRTYYADSVKGRFTISRDNAKNTVYLQLYSLKPEDTAVYYCAAVGYGDYYWGQGTQVTVSS | high polyreactivity |
| HDQLVESGGGLLQAGGSLRLSCAASGITLYRYVMGWYRQAPGKERELVAYIAGRGTSTYYSDSVKGRFTISRDHAKNTVYLQMNSLKPEDTAVYFCNAEYTKTGALVIPYTYYYAEDYWGQGTQVTVSS | low polyreactivity |
| HDQLVESGGGLVQAGGSLRLSCAASGFTFLDYAMGWSRKAPGKERELVASISSSGGSTRYADSVKGRFTISRDNAKNTVYLQMKSLKPQDTAVYYCNAQIAEVPNDYWGQGTPVTVSS | low polyreactivity |
| HDQLVETGGGLVQAGGSLRLSCAASGFTFRAYAMGWYRQAPGKEREFVAAISRRGGSTSYADSVKGRFTISRDNAKNTVYLQMNSLKPEDTAVYYCAATYQILTTSAHDSWGQGTQVTVSS | high polyreactivity |
| HDQRVESGGGLVQAGGSLRLSCAASGITFASYAMGWYRQAPGKDRELVAAISWGGSRTYYADSVKGRFTISRDTAKISVYLQMNSLKPEDTAVYYCNAHTRYGPDYSYYYWGQGTQVTVSS | high polyreactivity |
